In patent publication US20220119534A1 (DRAGONFLY THERAPEUTICS, published 2022):

Experiments:
[1] = molecular target: T1, recombinant cynomolgus CLEC12A-His (cynomolgus monkey, UniProt A0A2K5WXQ4 71-271); assay: SPR 37C
T1 construct: also called cCLEC12A-His; cCLEC12A
T1 sequence: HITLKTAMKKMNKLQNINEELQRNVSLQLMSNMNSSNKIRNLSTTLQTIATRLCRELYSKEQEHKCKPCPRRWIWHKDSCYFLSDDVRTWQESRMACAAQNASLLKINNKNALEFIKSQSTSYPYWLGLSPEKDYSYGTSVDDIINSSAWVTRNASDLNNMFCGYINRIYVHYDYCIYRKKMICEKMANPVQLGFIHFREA

[2] = molecular target: T2, human CLEC12A expressed on cells (human, UniProt Q5QGZ9 1-265); assay: flow cytometry on CLEC12A+ PL-21 AML cells
T2 construct: Transduced isogenic cells or endogenous expression on AML cells; also called RMA-hCLEC12A; Ba/F3-hCLEC12A
T2 sequence: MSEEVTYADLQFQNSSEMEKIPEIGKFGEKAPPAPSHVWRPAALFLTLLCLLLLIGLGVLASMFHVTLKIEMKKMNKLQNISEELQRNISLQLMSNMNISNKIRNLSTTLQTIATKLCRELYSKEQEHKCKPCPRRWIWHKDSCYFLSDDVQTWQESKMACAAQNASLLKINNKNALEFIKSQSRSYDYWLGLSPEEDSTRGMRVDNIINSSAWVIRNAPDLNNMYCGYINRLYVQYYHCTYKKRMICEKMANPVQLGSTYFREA

recombinant human CD16b = molecular target: T3, recombinant human CD16b (human, UniProt O75015 17-200, limits assumed, biotinylated); assay: SPR
T3 construct: also called FcγRIIIb

[3] = molecular target: T4, recombinant human CD16a V158 (human, UniProt P08637 17-208, biotinylated); assay: SPR
T4 construct: also called FcγRIIIa V158; hCD16aV

[4] = molecular target: T2, human CLEC12A expressed on cells; assay: flow cytometry on PL-21 cells, fold over background
Protocol: The cells were then incubated with a fluorophore conjugated anti-human IgG secondary antibody and were analyzed by flow cytometry. The mean fluorescence intensity (MFI) values were normalized to secondary antibody only controls to obtain fold over background (FOB) values.
100,000 cells were seeded per well into a 96-well plate for FACS staining. Cells were washed with PBS. Cells were incubated in a 1:2000 dilution of live/dead dye in PBS for 15 minutes, then washed with FACS buffer. TriNKETs or mAbs were diluted into FACS buffer, and 50 μl containing diluted TriNKET or mAb was added to cells. Cells were incubated on ice for 20 minutes. After the incubation, cells were washed with FACS buffer. Anti-human IgG-Fc secondary antibody was diluted into FACS buffer, and 50 μl was added per well for detection of the bound TriNKETs or mAbs. Cells were incubated for 20 minutes on ice, then washed with FACS buffer. 50 μl of fixation buffer was added to each well, and cells were incubated for 10 minutes at room temperature. […] Within the live gate, the mean fluorescence intensity (MFI) of each sample and the secondary-only control was calculated. Fold-over-background (FOB) was calculated as the ratio of test article MFI over secondary-only background MFI. […]

[5] = molecular target: T5, recombinant human CLEC12A-His (human, UniProt Q5QGZ9 65-265); assay: SPR, CLEC12A binding
T5 construct: also called hCLEC12A-His; hCLEC12A
T5 sequence: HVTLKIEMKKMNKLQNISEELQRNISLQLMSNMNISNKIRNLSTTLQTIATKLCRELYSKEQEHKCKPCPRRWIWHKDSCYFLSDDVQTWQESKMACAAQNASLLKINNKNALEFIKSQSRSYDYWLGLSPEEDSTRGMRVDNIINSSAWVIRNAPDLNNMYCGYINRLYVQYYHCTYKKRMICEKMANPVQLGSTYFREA

T3 sequence (O75015 17-200 limits assumed): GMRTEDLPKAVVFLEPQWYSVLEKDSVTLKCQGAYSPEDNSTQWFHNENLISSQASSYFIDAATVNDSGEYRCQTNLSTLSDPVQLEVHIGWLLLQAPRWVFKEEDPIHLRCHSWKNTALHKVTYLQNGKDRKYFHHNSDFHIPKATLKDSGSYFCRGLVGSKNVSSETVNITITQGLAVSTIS
T4 sequence (P08637 17-208 F176V limits assumed): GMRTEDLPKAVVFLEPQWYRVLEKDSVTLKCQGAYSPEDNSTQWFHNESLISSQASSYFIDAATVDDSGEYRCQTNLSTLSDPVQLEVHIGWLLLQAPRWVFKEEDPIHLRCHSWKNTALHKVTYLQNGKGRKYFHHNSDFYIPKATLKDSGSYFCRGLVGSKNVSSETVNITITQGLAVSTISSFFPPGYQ

B1: AB0089 TriNKET (other)
chain: QLQLQESGPGLVKPSETLSLTCTVSGFSLTNYGLHWIRQPPGKCLEWIGVIWVGGATDYNPSLKSRVTISVDTSKNQFSLKLSSVQAADTAVYYCAKGDYGDTLDYWGQGTLVTVSSGGGGSGGGGSGGGGSGGGGSDIQMTQSPSSLSASVGDRVTITCHASQNINFWLSWYQQKPGKAPKLLIYEASNLHTGVPSRFSGSGSGTDFTLTISSLQPEDFATYYCQQSHSYPLTFGCGTKLEIKGSDKTHTCPPCPAPELLGGPSVFLFPPKPKDTLMISRTPEVTCVVVDVSHEDPEVKFNWYVDGVEVHNAKTKPREEQYNSTYRVVSVLTVLHQDWLNGKEYKCKVSNKALPAPIEKTISKAKGQPREPRVYTLPPCRDELTKNQVSLTCLVKGFYPSDIAVEWESNGQPENNYKTTPPVLVSDGSFTLYSKLTVDKSRWQQGNVFSCSVMHEALHNHYTQKSLSLSPG
heavy: EVQLVESGGGLVKPGGSLRLSCAASGFTFSSYSMNWVRQAPGKGLEWVSSISSSSSYIYYADSVKGRFTISRDNAKNSLYLQMNSLRAEDTAVYYCARGAPIGAAAGWFDPWGQGTLVTVSSASTKGPSVFPLAPSSKSTSGGTAALGCLVKDYFPEPVTVSWNSGALTSGVHTFPAVLQSSGLYSLSSVVTVPSSSLGTQTYICNVNHKPSNTKVDKKVEPKSCDKTHTCPPCPAPELLGGPSVFLFPPKPKDTLMISRTPEVTCVVVDVSHEDPEVKFNWYVDGVEVHNAKTKPREEQYNSTYRVVSVLTVLHQDWLNGKEYKCKVSNKALPAPIEKTISKAKGQPREPQVCTLPPSRDELTENQVSLTCLVKGFYPSDIAVEWESNGQPENNYKTTPPVLDSDGSFFLYSWLTVDKSRWQQGNVFSCSVMHEALHNHYTQKSLSLSPG
light: DIQMTQSPSSVSASVGDRVTITCRASQGISSWLAWYQQKPGKAPKLLIYAASSLQSGVPSRFSGSGSGTDFTLTISSLQPEDFATYYCQQGVSFPRTFGGGTKVEIKRTVAAPSVFIFPPSDEQLKSGTASVVCLLNNFYPREAKVQWKVDNALQSGNSQESVTEQDSKDSTYSLSSTLTLSKADYEKHKVYACEVTHQGLSSPVTKSFNRGEC
binding result [1]: no binding (tested: 100 nM)
EC50 [2]: 0.45 nM
fold difference in affinity vs trastuzumab (recombinant human CD16b): 2.3 fold
fold difference in affinity vs trastuzumab [3]: 3.8 fold
EC50 (read off the curve) [4]: ~0.5 nM
Kd [5]: 0.8 nM
